Measured values: patent publication US20050202010A1, “Method of treatment and bioassay involving macrophage migration inhibitory factor (MIF) as cardiac-derived myocardial depressant factor” (priority 2003, published 2005)
Values joined by “and” are separate entries in the source; they are usually repeats but may differ in a detail not shown here. Equal entries are not always repeated.

What was measured:
[1] = system: spontaneously beating normal mouse hearts (C57BL/6J); assay: Langendorff preparation, hearts perfused with rMIF (C57BL/6J); details: C57BL/6J hearts, 20 ng/ml rMIF, 1.5 ml/m
Protocol: Determination of cardiac function in response to rMIF. C57BL/6J and C3H/HeJ mice were used in the Langendorff assays. Briefly, 200 U heparin sulfate was given i.p., the mice sacrificed 20 m later, and the heart immediately removed and placed on ice in Krebs-Hanseleit Buffer ([…], 118 mM NaCl, 4.7 mM KCL, 1.2 mM KH2PO4, 1.2 mM MgSO4, 2.5 mM CaCl2, 11.1 mM glucose, pH 7.4, which was prepared fresh with demineralized, deionized water and bubbled with 95% O2 and 5% CO2 (PO2 590 mmHg, pCO2 38 mmHg)). The aorta was cannulated with PE50 tubing, the heart perfused in a retrograde manner through the aortic root with prefiltered, oxygenated Krebs-Hanseleit Buffer at a constant flow rate of 1.5 ml/m (T 37° C.) and a recirculating volume of 100 ml. The heart was placed in a water-jacketed chamber to maintain constant temperature and humidity. PE60 intratnedic polyethylene tubing was connected to a Statham pressure transducer inserted into the left ventricle (LV) to measure LV pressure. Temperature was monitored using a 27 G thertnistor needle inserted into the LV muscle. […] Following stabilization, LV pressure and its first derivative (dP/dt), heart rate, and coronary perfusion were measured simultaneously with a multichannel Grass 7D polygraph (Grass Instruments, Quincy, M A). Cardiac function for all hearts was determined by plotting peak systolic LV pressure and ±dP/dt,Ia, values against changes in coronary flow rate.
MIF induces systolic and diastolic cardiac dysfunction. […] Responses to MIF were determined in hearts from both C57BL/6J mice, and C3H/HeJ mice. C3H/HeJ mice are resistant to endotoxin (41-43), therefore controlling for the possibility that any depression observed might be due to trace endotoxin in the perfusate. Table 2 illustrates the responses of both mouse strains to retrograde aortic perfusion at 1.5 ml/m with control perfusate or perfusate containing 20 ng/ml recombinant MIF. Perfusion with MIF led to a significant decrease in LVP, +dP/dtmax, and −dP/dt max in both mouse strains. FIG. 4 illustrates the effect of MIF over a range of coronary flow rates. […]

CD74 KO mouse hearts = assay: Langendorff, rhMIF added to perfusate, CD74 KO mouse hearts; set-up: LVP / +dP/dt / −dP/dt / TPP / CVR: unit not given beside the values
[2] = CD74 K/O + rhMIF, single hearts by date and mean (x), n 3
[3] = CD74 K/O + rhMIF, single hearts by date and mean (x), n 3, mean
[4] = CD74 KO + rhMIF in perfusate, n = 3

B1: rMIF: recombinant human macrophage migration inhibitory factor added to the heart perfusate at 20 ng/ml (protein, UniProt P14174 2-115, looked up)
Macrophage migration …: PMFIVNTNVPRASVPDGFLSELTQQLAQATGKPPQYIAVHVVPDQLMAFGGSSEPCALCSLHSIGKIGGAQNRSYSKLLCGLLAERLRISPDRVYINYYDMNAANVGWNNSTFA
[1]; n = 10
  +dP/dt max: 1920 ± 89 mm Hg/see
  −dP/dt max: 1545 ± 122 mm Hg/sec
[1]; n = 10, mean peak
  LVP: 77.9 ± 5.1 mm Hg
CD74 KO mouse hearts; [2]
  +dP/dt: 1800 and 1600 and 2200
  CVR: 45 and 53 and 71
  DR: 1.286 and 1.455 and 1.222
  HR: 320 and 325
  LVP: 64 and 50 and 88
  Max + d: 45 and 50 and 40
  Max − d: 53 and 52
  RT90: 80 and 72
  TPP: 70 and 75 and 63
  dP40: 1900
  −dP/dt: 1400 and 1100 and 1800
CD74 KO mouse hearts; [3]
  +dP/dt: 1866.667
  CVR: 56.33
  DR: 1.321
  HR: 321.6667
  LVP: 67.33
  Max − d: 52.67
  RT90: 77.33
  TPP: 69.33
  dP40: 1666.667
  −dP/dt: 1433.333
CD74 KO mouse hearts; [4]
  +dP/dt max: 1867 ± 176 mmHg/sec
  Coronay Perfusion Pressue: 86.0 ± 23.6 mmHg
  Coronay Vascular Resistance: 56.3 ± 7.7 mmHg
  Heart Rate: 322 ± 2 bpm
  Left Ventricular Pressure: 67.3 ± 14.4 mmHg
  Time to 90% Relaxation: 77.3 ± 2.7 ms
  Time to Max +dP/dt: 45.0 ± 2.9 ms
  Time to Max −dP/dt: 52.7 ± 0.3 ms
  Time to Peak Pressue: 69.3 ± 3.5 ms
  dP40: 1662 ± 120 mmHg/sec
  −dP/dt max: 1433 ± 202 mmHg/sec
